Sequences and labels used below:
B1: LINE1-mini (parent)
chain: GGCAGAGCUCAACACAGCGUGGCAAAGUGGCUGUGGCUAGACUGCC

This passage reports self-cleavage results from the RNAGym collection of RNA variant scans (doi:10.7554/elife.90254).

The series covers variants of B1. The series can be described thus: self-cleavage, relative activity (ratio to wild type); higher = more cleavage; in vitro, sequencing; the parent is a self-cleaving ribozyme.
With GGCAGAGCUCAACACAGCUAGGCAAAGUGGCUGUGGCUAGACUGCC, the self-cleavage was found to be 0.86.
Next, GGCAGAGCUCAACACAGCUCGGCAAAGUGGCUGUGGCUAGACUGCC: 0.76; GGCAGAGCUCAACACAGCUGGGCAAAGUGGCUGUGGCUAGACUGCC: 0.77.
The value for GGCAGAGCUCAACACAGCUUGGCAAAGUGGCUGUGGGUAGACUGCC was 0.02.
As for GGCAGAGCUCAACACAGCUUGGCAAAGUGGCUGUGGUUAGACUGCC, the self-cleavage worked out at 0.04.
The value for GGCAGAGCUCAACACAGCUUGGCAAAGUGGCUGUGGAUAGACUGCC was 0.05; that for GGCAGAGCUCAACACAGCUUGGCAAAGUGGCUGUGGCUAGAGUGCC was 0.07; that for GGCAGAGCUCAACACAGCUUGGCAAAGUGGCUGUGGCUAGAUUGCC was 0.3.
Next, GGCAGAGCUCAACACAGCUUGGCAAAGUGGCUGUGGCUAGAAUGCC: 0.14; GGCAGAGCUCAACACAGCUUGGCAAAGUGGCUGUCGCUAGACUGCC: 0.09; GGCAGAGCUCAACACAGCUUGGCAAAGUGGCUGUAGCUAGACUGCC: 0.12.
Next, GGCAGAGCUCAACACAGCUUGGCAAAGUGGCUGUUGCUAGACUGCC: 0.16.
In the case of GGCAGAGCUCAACACAGCCUGGCAAAGUGGCUCUGGCUAGACUGCC, the self-cleavage worked out at 0.12.
Next, GGCAGAGCUCAACACAGCCUGGCAAAGUGGCUUUGGCUAGACUGCC: 0.34; GGCAGAGCUCAACACAGCCUGGCAAAGUGGCUAUGGCUAGACUGCC: 0.15; GGCAGAGCUCAACACAGCUUGGCAAUGUGGCUGUGGCUAGACUGCC: 0.56.
Next, GGCAGAGCUCAACACAGCUUGGCAACGUGGCUGUGGCUAGACUGCC: 0.61.
Next, GGCAGAGCUCAACACAGCUUGGCAAAGUGGCUGUGGCUAGACUGAC: 0.43; GGCAGAGCUCAACACAGCUUGGCAAAGUGGCUGUGGCUAGACUGUC: 1.38.
For the variant GGCAGAGCUCAACACAGCUUGGCAAAGUGGCUGUGGCUAGACUGGC, the self-cleavage was 0.82.
Next, GGCAGAGCUCAACACAGCUUGGCAAAGUGGCUGUGGCUAGCCUGCC: 0.03; GGCAGAGCUCAACACAGCUUGGCAAAGUGGCUGUGGCUAGGCUGCC: 0.2.
Next, GGCAGAGCUCAACACAGCUUGGCAAAGUGGCUGUGGCUAGUCUGCC: 0.41.
Turning to GGCAGAGCUCAACACAGCCAGGCAAAGUGGCUGUGGCUAGACUGCC, the self-cleavage came out at 0.3.
Regarding GGCAGAGCUCAACACAGCCGGGCAAAGUGGCUGUGGCUAGACUGCC, the self-cleavage stood at 0.4.
With GGCAGAGCUCAACACAGCCCGGCAAAGUGGCUGUGGCUAGACUGCC, the self-cleavage is 0.61.
Turning to GGCAGAGCUCAACACAGCCUGGCAAAGUGCCUGUGGCUAGACUGCC, the self-cleavage is 1.
Next, GGCAGAGCUCAACACAGCCUGGCAAAGUGACUGUGGCUAGACUGCC: 0.91; GGCAGAGCUCAACACAGCCUGGCAAAGUGUCUGUGGCUAGACUGCC: 0.54; GGCAGAGCUCAACACAGCUUGGCACAGUGGCUGUGGCUAGACUGCC: 0.61.
The value for GGCAGAGCUCAACACAGCUUGGCAUAGUGGCUGUGGCUAGACUGCC was 0.67.
Next, GGCAGAGCUCAACACAGCUUGGCAGAGUGGCUGUGGCUAGACUGCC: 0.49; GGCAGAGCUCAACACAGCUUUGCAAAGUGGCUGUGGCUAGACUGCC: 0.58; GGCAGAGCUCAACACAGCUUAGCAAAGUGGCUGUGGCUAGACUGCC: 0.64.
With GGCAGAGCUCAACACAGCUUCGCAAAGUGGCUGUGGCUAGACUGCC, the self-cleavage worked out at 0.81.
The value for GGCAGAGCUCAACACAGCUUGUCAAAGUGGCUGUGGCUAGACUGCC was 0.63; that for GGCAGAGCUCAACACAGCUUGCCAAAGUGGCUGUGGCUAGACUGCC was 0.5; that for GGCAGAGCUCAACACAGCUUGACAAAGUGGCUGUGGCUAGACUGCC was 0.78.
The value for GGCAGAGCUCAACACAGCCUGGCAAAGUGGCUGUGGCUAGACUCCC was 0.12; that for GGCAGAGCUCAACACAGCCUGGCAAAGUGGCUGUGGCUAGACUUCC was 0.15.
The value for GGCAGAGCUCAACACAGCCUGGCAAAGUGGCUGUGGCUAGACUACC was 0.15; that for GGCAGAGCUCAACACAGCCUGGCAAAGUAGCUGUGGCUAGACUGCC was 0.92.
On to GGCAGAGCUCAACACAGCCUGGCAAAGUUGCUGUGGCUAGACUGCC, for which the self-cleavage stood at 0.54.
The value for GGCAGAGCUCAACACAGCCUGGCAAAGUCGCUGUGGCUAGACUGCC was 0.54.
Consider GGCAGAGCUCAACACAGCCUGGCAAAGUGGCUGUUGCUAGACUGCC, for which the self-cleavage amounted to 0.07.
The value for GGCAGAGCUCAACACAGCCUGGCAAAGUGGCUGUAGCUAGACUGCC was 0.17.
Next, GGCAGAGCUCAACACAGCCUGGCAAAGUGGCUGUCGCUAGACUGCC: 0.17.
Next, GGCAGAGCUCAACACAGCCUGGCAAAGAGGCUGUGGCUAGACUGCC: 1.2; GGCAGAGCUCAACACAGCCUGGCAAAGGGGCUGUGGCUAGACUGCC: 0.37; GGCAGAGCUCAACACAGCCUGGCAAAGCGGCUGUGGCUAGACUGCC: 0.6.
As for GGCAGAGCUCAACACAGCCUGGCAAAGUGGCUGUGGCUAGACAGCC, the self-cleavage was 0.02.
Next, GGCAGAGCUCAACACAGCCUGGCAAAGUGGCUGUGGCUAGACGGCC: 0.02.
The value for GGCAGAGCUCAACACAGCCUGGCAAAGUGGCUGUGGCUAGACCGCC was 0.03.
The value for GGCAGAGCUCAACACAGCUUGGCAAAGUGGCUGUGGCUAGACUACC was 0.27; that for GGCAGAGCUCAACACAGCUUGGCAAAGUGGCUGUGGCUAGACUUCC was 0.28.
As to GGCAGAGCUCAACACAGCUUGGCAAAGUGGCUGUGGCUAGACUCCC, the self-cleavage turned out to be 0.31.
Next, GGCAGAGCUCAACACAGCUUGGUAAAGUGGCUGUGGCUAGACUGCC: 1.03.
Consider GGCAGAGCUCAACACAGCUUGGGAAAGUGGCUGUGGCUAGACUGCC, for which the self-cleavage was determined as 0.7.
Next, GGCAGAGCUCAACACAGCUUGGAAAAGUGGCUGUGGCUAGACUGCC: 0.64; GGCAGAGCUCAACACAGCUUGGCAAAGUGGCUGUGACUAGACUGCC: 0.1.
The value for GGCAGAGCUCAACACAGCUUGGCAAAGUGGCUGUGUCUAGACUGCC was 0.04; that for GGCAGAGCUCAACACAGCUUGGCAAAGUGGCUGUGCCUAGACUGCC was 0.1; that for GGCAGAGCUCAACACAGCUUGGCAAAGUGGCUGUGGCUCGACUGCC was 0.06.
Next, GGCAGAGCUCAACACAGCUUGGCAAAGUGGCUGUGGCUUGACUGCC: 0.58.
Take GGCAGAGCUCAACACAGCUUGGCAAAGUGGCUGUGGCUGGACUGCC: the self-cleavage stood at 0.06.
The value for GGCAGAGCUCAACACAGCUUGGCAAAGAGGCUGUGGCUAGACUGCC was 0.63; that for GGCAGAGCUCAACACAGCUUGGCAAAGCGGCUGUGGCUAGACUGCC was 0.67.
Next, GGCAGAGCUCAACACAGCUUGGCAAAGGGGCUGUGGCUAGACUGCC: 0.73; GGCAGAGCUCAACACAGCCUGGCAAAGUGGCUGUGGCAAGACUGCC: 0.05.
Next, GGCAGAGCUCAACACAGCCUGGCAAAGUGGCUGUGGCCAGACUGCC: 0.28.
As for GGCAGAGCUCAACACAGCCUGGCAAAGUGGCUGUGGCGAGACUGCC, the self-cleavage was 0.01.
Next, GGCAGAGCUCAACACAGCUUGGCAAAGUGGCUGUGGCUAGACUGCG: 0.71; GGCAGAGCUCAACACAGCUUGGCAAAGUGGCUGUGGCUAGACUGCU: 0.86.
The value for GGCAGAGCUCAACACAGCUUGGCAAAGUGGCUGUGGCUAGACUGCA was 1.08; that for GGCAGAGCUCAACACAGCCUGGCAAAGUGGCUGUGGCUACACUGCC was 0.06.
For the variant GGCAGAGCUCAACACAGCCUGGCAAAGUGGCUGUGGCUAUACUGCC, the self-cleavage is 0.08.
Consider GGCAGAGCUCAACACAGCCUGGCAAAGUGGCUGUGGCUAAACUGCC, for which the self-cleavage was 0.06.
On to GGCAGAGCUCAACACAGCCUGGCAAAGUGGCGGUGGCUAGACUGCC, for which the self-cleavage was found to be 0.43.
Regarding GGCAGAGCUCAACACAGCCUGGCAAAGUGGCAGUGGCUAGACUGCC, the self-cleavage worked out at 0.16.
The value for GGCAGAGCUCAACACAGCCUGGCAAAGUGGCCGUGGCUAGACUGCC was 0.14; that for GGCAGAGCUCAACACAGCCUGUCAAAGUGGCUGUGGCUAGACUGCC was 0.51.
For GGCAGAGCUCAACACAGCUUGGCAAAGUGGAUGUGGCUAGACUGCC, the self-cleavage came out at 0.37.
On to GGCAGAGCUCAACACAGCUUGGCAAAGUGGGUGUGGCUAGACUGCC, for which the self-cleavage was determined as 0.05.
GGCAGAGCUCAACACAGCUUGGCAAAGUGGUUGUGGCUAGACUGCC: the self-cleavage amounted to 0.44.
The value for GGCAGAGCUCAACACAGCCUGGCAAAGUGGCUGUGCCUAGACUGCC was 0.05.
GGCAGAGCUCAACACAGCCUGGCAAAGUGGCUGUGACUAGACUGCC: the self-cleavage was 0.09.
The value for GGCAGAGCUCAACACAGCCUGGCAAAGUGGCUGUGUCUAGACUGCC was 0.06.
Next, GGCAGAGCUCAACACAGCUUGGCAAAGUGACUGUGGCUAGACUGCC: 0.96.
Next, GGCAGAGCUCAACACAGCUUGGCAAAGUGUCUGUGGCUAGACUGCC: 1.11.
In the case of GGCAGAGCUCAACACAGCUUGGCAAAGUGCCUGUGGCUAGACUGCC, the self-cleavage is 0.59.
Next, GGCAGAGCUCAACACAGCUUGGCAAAAUGGCUGUGGCUAGACUGCC: 0.54.
The value for GGCAGAGCUCAACACAGCUUGGCAAAUUGGCUGUGGCUAGACUGCC was 0.58; that for GGCAGAGCUCAACACAGCUUGGCAAACUGGCUGUGGCUAGACUGCC was 0.75.
For GGCAGAGCUCAACACAGCUUGGCAAAGUCGCUGUGGCUAGACUGCC, the self-cleavage is 0.64.
The value for GGCAGAGCUCAACACAGCUUGGCAAAGUUGCUGUGGCUAGACUGCC was 0.8.
The value for GGCAGAGCUCAACACAGCUUGGCAAAGUAGCUGUGGCUAGACUGCC was 0.93.
The value for GGCAGAGCUCAACACAGCUUGGCAAAGUGGCUUUGGCUAGACUGCC was 0.13; that for GGCAGAGCUCAACACAGCUUGGCAAAGUGGCUAUGGCUAGACUGCC was 0.18; that for GGCAGAGCUCAACACAGCUUGGCAAAGUGGCUCUGGCUAGACUGCC was 0.07.
With GGCAGAGCUCAACACAGCUUGGCAAAGUGGCUGUGGCUAUACUGCC, the self-cleavage stood at 0.1.
GGCAGAGCUCAACACAGCUUGGCAAAGUGGCUGUGGCUACACUGCC: the self-cleavage was found to be 0.05.
Next, GGCAGAGCUCAACACAGCUUGGCAAAGUGGCUGUGGCUAAACUGCC: 0.08; GGCAGAGCUCAACACAGCCUGGCAAACUGGCUGUGGCUAGACUGCC: 0.61.
Next, GGCAGAGCUCAACACAGCCUGGCAAAUUGGCUGUGGCUAGACUGCC: 0.43; GGCAGAGCUCAACACAGCCUGGCAAAAUGGCUGUGGCUAGACUGCC: 0.54.
Next, GGCAGAGCUCAACACAGCCUGGCAAAGUGGCUGAGGCUAGACUGCC: 0.28; GGCAGAGCUCAACACAGCCUGGCAAAGUGGCUGCGGCUAGACUGCC: 1.22; GGCAGAGCUCAACACAGCCUGGCAAAGUGGCUGGGGCUAGACUGCC: 0.14.
Regarding GGCAGAGCUCAACACAGCUUGGCAAAGUGGCUGUGGCUAGACUGCC, the self-cleavage came to 0.77.
The value for GGCAGAGCUCAACACAGCUUGGCCAAGUGGCUGUGGCUAGACUGCC was 0.73.
The value for GGCAGAGCUCAACACAGCUUGGCGAAGUGGCUGUGGCUAGACUGCC was 0.45; that for GGCAGAGCUCAACACAGCUUGGCUAAGUGGCUGUGGCUAGACUGCC was 0.81.
